Series [1] in a line: Peptide phosphatase assay (BIOMOL green). The format is biochemical. The conditions noted are these: any peptide substrates examined; data not shown.
A short description of series [2]: Phosphatase activity with fluorogenic substrate DiFMUP. The class given is biochemical. The procedure:
Purified, recombinant KAPh phosphatase domain (amino acids 83-464 SEQ ID NO 4) (100 μg/mL) and full-length PTEN (amino acids 1-403) (100 μg/mL) were each mixed with a fluorogenic phosphatase substrate 6,8-difluoro-4-methylumbelliferyl phosphate (DiFMUP) (Molecular Probes, Eugene, Oreg.) at a final concentration of a 100 μM in assay buffer (10 mM sodium acetate, pH 6.0, 150 mM NaCl, 5 mM DTT). Following incubation at ambient temperature for 15 or 60 min., the fluorescence intensity of the 6,8-difluoro-4-methylumbelliferone (DiFMU) product was measured in triplicate and used as an assessment of phosphatase activity. A Victor 5 microplate reader from Wallac (Turku, Finland) was used to read the fluorescence intensity from 384-well microplates (Corning Inc., Corning, N.Y.).

Series [3] has as its target T1, GST (baculovirus-expressed glutathione S-transferase alone) (UniProt P08515 1-218 = GST).
T1 construct: Control; also called GST alone
The series is described as follows: GST pull-down from HEK 293 lysate, anti-HisG blot.

Series [4] deals with T2, 6xHis-tagged KAPh full-length protein (expressed in HEK 293 cells from pcDNA4/HisMax) (Homo sapiens, UniProt Q63HR2 26-1409, limits assumed).
T2 construct: Used as HEK 293 cell lysate; also called full-length KAPh; hexahistidine-tagged full-length KAPh
T2 sequence: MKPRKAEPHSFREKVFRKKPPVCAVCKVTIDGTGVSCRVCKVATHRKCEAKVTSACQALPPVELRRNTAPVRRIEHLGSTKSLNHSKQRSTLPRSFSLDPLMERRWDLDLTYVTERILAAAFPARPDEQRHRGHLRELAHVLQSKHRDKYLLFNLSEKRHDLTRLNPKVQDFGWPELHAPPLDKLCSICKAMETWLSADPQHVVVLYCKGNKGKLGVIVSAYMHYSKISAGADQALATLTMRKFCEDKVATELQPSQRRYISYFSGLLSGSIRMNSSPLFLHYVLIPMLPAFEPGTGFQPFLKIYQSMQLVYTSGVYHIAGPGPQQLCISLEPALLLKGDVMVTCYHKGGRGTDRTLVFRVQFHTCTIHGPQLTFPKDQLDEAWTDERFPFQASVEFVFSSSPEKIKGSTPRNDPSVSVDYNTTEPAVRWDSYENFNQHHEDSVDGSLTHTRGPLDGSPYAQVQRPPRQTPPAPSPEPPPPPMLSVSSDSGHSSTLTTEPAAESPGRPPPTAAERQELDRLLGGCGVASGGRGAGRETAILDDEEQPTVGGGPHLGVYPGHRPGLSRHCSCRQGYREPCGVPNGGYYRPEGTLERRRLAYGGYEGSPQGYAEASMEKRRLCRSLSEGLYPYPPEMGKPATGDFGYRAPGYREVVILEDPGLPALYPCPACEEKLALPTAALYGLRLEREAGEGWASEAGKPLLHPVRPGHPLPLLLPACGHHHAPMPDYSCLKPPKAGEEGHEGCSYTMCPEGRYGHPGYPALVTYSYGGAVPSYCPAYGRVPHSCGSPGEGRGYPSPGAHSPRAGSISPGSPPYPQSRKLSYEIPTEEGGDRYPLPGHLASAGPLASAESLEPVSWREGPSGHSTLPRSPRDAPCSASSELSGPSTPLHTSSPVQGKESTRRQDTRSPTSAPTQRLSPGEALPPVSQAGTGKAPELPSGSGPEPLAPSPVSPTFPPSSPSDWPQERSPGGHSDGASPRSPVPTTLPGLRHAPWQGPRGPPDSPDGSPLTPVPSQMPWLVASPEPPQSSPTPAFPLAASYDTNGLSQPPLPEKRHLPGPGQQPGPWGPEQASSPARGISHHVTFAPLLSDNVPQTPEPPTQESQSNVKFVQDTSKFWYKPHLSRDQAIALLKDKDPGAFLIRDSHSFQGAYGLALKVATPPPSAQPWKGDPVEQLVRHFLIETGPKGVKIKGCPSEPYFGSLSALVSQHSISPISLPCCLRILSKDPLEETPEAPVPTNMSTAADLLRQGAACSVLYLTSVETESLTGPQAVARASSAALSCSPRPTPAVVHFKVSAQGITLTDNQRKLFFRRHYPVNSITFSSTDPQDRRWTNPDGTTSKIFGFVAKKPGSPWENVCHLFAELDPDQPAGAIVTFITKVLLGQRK
As to the kind of experiment: GST pull-down from HEK 293 lysate, anti-HisG blot.

T1 sequence (P08515 whole entry): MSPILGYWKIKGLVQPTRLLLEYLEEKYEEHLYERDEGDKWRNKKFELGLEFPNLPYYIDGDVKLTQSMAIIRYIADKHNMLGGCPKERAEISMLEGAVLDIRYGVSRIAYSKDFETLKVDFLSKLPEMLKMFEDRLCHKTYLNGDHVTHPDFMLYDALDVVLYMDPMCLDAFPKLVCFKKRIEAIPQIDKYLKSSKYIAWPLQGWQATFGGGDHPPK

For “PTEN: full-length PTEN (amino acids 1-403), tumor suppressor with phosphatase activity, used as comparator [reference compound]”, the “phosphatase activity using peptide substrates” value in series [1] is reported as “unable to detect significant, reproducible phosphatase activity”. Besides, in series [2] (100 μg/mL protein, 100 μM DiFMUP, pH 6.0, ambient temperature, 60 min incubation), the “fluorescent product (DiFMU) generated, fold over buffer control” value is reported as 6 fold.

B1: 6xHis-tagged KAPh SH2 domain (expressed in HEK 293 cells from pcDNA4/HisMax) (other, not shown: small tags and cut ends)
chain: WYKPHLSRDQAIALLKDKDPGAFLIRDSHSFQGAYGLALKVATPPPSAQPWKGDPVEQLVRHFLIETGPKGVKIKGCPSEPYFGSLSALVSQHSISPISLPCCLRILS
notes: Used as HEK 293 cell lysate; also called hexahistidine-tagged KAPh SH2 domain; KAPh SH2 domain-containing protein fragment
B1: the binding result in series [3] was “no binding”.

B2: GST Tie1 wild-type (GST fusion of the intracellular domain of human Tie1) (receptor, UniProt P35590 785-1138, looked up)
chain: CIRRSCLHRRRTFTYQSGSGEETILQFSSGTLTLTRRPKLQPEPLSYPVLEWEDITFEDLIGEGNFGQVIRAMIKKDGLKMNAAIKMLKEYASENDHRDFAGELEVLCKLGHHPNIINLLGACKNRGYLYIAIEYAPYGNLLDFLRKSRVLETDPAFAREHGTASTLSSRQLLRFASDAANGMQYLSEKQFIHRDLAARNVLVGENLASKIADFGLSRGEEVYVKKTMGRLPVRWMAIESLNYSVYTTKSDVWSFGVLLWEIVSLGGTPYCGMTCAELYEKLPQGYRMEQPRNCDDEVYELMRQCWRDRPYERPPFAQIALQLGRMLEARKAYVNMSLFENFTYAGIDATAEEA
modifications: some degree of tyrosine phosphorylation after in vitro autophosphorylation; sites not listed
notes: domain: intracellular domain; also called Tie1 kinase; not shown: glutathione S-transferase (GST) encoded by the pAcGHLT baculovirus transfer vector (Pharmingen); in-frame fusion, linker
With B2, the binding result in series [4] is given as “no binding”.

B3: GST Tie2 wild-type (GST fusion of the intracellular domain of human Tie2/TEK) (receptor, UniProt Q02763 770-1124, looked up)
chain: LQLKRANVQRRMAQAFQNVREEPAVQFNSGTLALNRKVKNNPDPTIYPVLDWNDIKFQDVIGEGNFGQVLKARIKKDGLRMDAAIKRMKEYASKDDHRDFAGELEVLCKLGHHPNIINLLGACEHRGYLYLAIEYAPHGNLLDFLRKSRVLETDPAFAIANSTASTLSSQQLLHFAADVARGMDYLSQKQFIHRDLAARNILVGENYVAKIADFGLSRGQEVYVKKTMGRLPVRWMAIESLNYSVYTTNSDVWSYGVLLWEIVSLGGTPYCGMTCAELYEKLPQGYRLEKPLNCDDEVYDLMRQCWREKPYERPSFAQILVSLNRMLEERKTYVNTTLYEKFTYAGIDCSAEEAA
modifications: some degree of tyrosine phosphorylation after in vitro autophosphorylation; sites not listed
notes: domain: intracellular domain; also called Tie2 kinase; not shown: glutathione S-transferase (GST) encoded by the pAcGHLT baculovirus transfer vector (Pharmingen); in-frame fusion, linker
B3: the binding result in series [4] is given as “no binding”.

B4: KAPh phosphatase domain: purified, recombinant KAPh phosphatase domain (amino acids 83-464 SEQ ID NO 4) (protein, listed as Homo sapiens)
chain: LNHSKQRSTLPRSFSLDPLMERRWDLDLTYVTERILAAAFPARPDEQRHRGHLRELAHVLQSKHRDKYLLFNLSEKRHDLTRLNPKVQDFGWPELHAPPLDKLCSICKAMETWLSADPQHVVVLYCKGNKGKLGVIVSAYMHYSKISAGADQALATLTMRKFCEDKVATELQPSQRRYISYFSGLLSGSIRMNSSPLFLHYVLIPMLPAFEPGTGFQPFLKIYQSMQLVYTSGVYHIAGPGPQQLCISLEPALLLKGDVMVTCYHKGGRGTDRTLVFRVQFHTCTIHGPQLTFPKDQLDEAWTDERFPFQASVEFVFSSSPEKIKGSTPRNDPSVSVDYNTTEPAVRWDSYENFNQHHEDSVDGSLTHTRGPLDGSPYAQVQ
As for B4, in series [2] (15 or 60 min incubation with DiFMUP), the “phosphatase activity over time” value is “time-dependent increase in phosphatase activity”.
